Assay results as given in publication PMC4341974 (Science translational medicine, 2014).
Numbering of substitutions follows the chain as printed. Where two headings read alike, the source gives them in different places. Values belong to the molecule of their own block, whether it stands above or below them.

What was measured:
[1] = biological target: integrin αvβ8 on β8-expressing HT1080 cells (wild-type β8) (human (endogenous in HT1080) | human) (UniProt P06756); experiment: flow cytometry on cells
[2] = biological target: T1, integrin αvβ8 (construct of the affinity and cross-competition measurements, not told) (Homo sapiens, UniProt P06756;P26012); experiment: flow cytometry on cells
[3] = biological target: T1, integrin αvβ8 (construct of the …)

T1 sequence (P06756 31-1048, chain 1 of 2): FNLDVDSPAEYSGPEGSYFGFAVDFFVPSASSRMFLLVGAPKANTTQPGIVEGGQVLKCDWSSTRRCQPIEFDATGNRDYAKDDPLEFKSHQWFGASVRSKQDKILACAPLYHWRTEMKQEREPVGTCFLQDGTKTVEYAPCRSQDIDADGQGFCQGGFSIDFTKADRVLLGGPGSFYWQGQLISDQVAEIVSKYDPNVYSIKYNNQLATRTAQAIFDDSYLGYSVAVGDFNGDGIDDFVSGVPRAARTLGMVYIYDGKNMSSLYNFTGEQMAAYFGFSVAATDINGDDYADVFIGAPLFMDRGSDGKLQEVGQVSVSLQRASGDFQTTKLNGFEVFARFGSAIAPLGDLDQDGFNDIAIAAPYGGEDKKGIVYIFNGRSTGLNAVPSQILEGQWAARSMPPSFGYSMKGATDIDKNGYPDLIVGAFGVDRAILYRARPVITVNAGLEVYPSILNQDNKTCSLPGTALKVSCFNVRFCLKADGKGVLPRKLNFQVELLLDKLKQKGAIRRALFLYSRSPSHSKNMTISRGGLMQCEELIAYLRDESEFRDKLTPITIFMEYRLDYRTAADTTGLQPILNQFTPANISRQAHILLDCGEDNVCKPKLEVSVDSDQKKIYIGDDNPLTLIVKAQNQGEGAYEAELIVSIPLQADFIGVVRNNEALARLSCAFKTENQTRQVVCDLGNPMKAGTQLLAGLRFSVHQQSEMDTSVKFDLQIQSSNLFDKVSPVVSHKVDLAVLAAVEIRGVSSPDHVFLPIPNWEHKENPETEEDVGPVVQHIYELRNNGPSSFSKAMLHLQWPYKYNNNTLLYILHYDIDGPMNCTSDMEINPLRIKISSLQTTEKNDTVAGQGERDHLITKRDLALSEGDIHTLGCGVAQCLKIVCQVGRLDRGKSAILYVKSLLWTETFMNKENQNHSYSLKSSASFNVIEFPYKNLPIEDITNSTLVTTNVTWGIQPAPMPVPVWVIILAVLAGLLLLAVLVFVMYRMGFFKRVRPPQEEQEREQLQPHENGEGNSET
T1 sequence (P26012 43-769, chain 2 of 2): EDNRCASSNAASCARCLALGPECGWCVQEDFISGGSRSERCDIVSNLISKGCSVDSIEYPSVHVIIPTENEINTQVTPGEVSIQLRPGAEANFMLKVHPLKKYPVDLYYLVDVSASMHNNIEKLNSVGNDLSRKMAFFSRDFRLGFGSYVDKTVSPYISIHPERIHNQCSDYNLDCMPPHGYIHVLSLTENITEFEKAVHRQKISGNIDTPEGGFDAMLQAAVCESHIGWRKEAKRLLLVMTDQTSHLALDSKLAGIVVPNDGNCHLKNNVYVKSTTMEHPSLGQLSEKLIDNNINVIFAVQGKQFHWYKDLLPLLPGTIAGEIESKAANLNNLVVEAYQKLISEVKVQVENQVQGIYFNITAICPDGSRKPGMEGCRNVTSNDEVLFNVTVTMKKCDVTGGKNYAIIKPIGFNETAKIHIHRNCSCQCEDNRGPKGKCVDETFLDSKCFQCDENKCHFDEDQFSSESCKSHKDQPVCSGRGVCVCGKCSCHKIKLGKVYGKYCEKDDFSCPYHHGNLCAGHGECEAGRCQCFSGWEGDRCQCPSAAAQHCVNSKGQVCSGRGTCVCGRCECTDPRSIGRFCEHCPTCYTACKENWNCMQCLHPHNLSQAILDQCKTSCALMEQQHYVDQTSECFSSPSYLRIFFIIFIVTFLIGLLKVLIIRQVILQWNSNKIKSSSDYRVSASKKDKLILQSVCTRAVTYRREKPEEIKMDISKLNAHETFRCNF
Chain of integrin αvβ8 on β8-expressing HT1080 cells (wild-type β8) (human (endogenous in HT1080) | human) (P06756 31-1048, chain 1 of 2): as the sequence (P06756 31-1048, chain 1 of 2) above
Chain of integrin αvβ8 on β8-expressing HT1080 cells (wild-type β8) (human (endogenous in HT1080) | human) (P26012 43-769, chain 2 of 2, further chain): as the sequence (P26012 43-769, chain 2 of 2) above

percent decrease of B5 binding to β8-expressing HT1080 cells [1]: 29%
Molecule: latency-associated peptide (from UniProt P01137 30-278) (ligand)

Kd [2]: 0.118 µM
B1: 37E1 single-chain antibody fragment (scFv) on yeast (scFv, V domains shown)
VH: EVQLVESGGGLVQPGGSLNLSCAASGFVFSRYWMSWVRQAPGKGLEWIGEINPDSSTINYTSSLKDKFIISRDNAKNTLYLQMNKVRSEDTALYYCACLITTEDYWGQGTSVTVSS
VL: QIVLTQSPSSMYASLGERVTIPCKASQDINSYLSWFQQKPGKSPKTLIYRANRLVDGVPSRFSGSGSGQDYSLTISSLEYEDMGIYYCLQYDEFPYTFGGGTKLEIK

Kd [3]: 0.00054 µM
B2: B5 intact IgG (antibody, V domains shown)
VH: B1 VH with A24V
VL: B1 VL with R50Y

Kd [2]: 0.0154 µM
B3: B5 single-chain antibody fragment (scFv) on yeast (scFv, V domains shown)
VH: B1 VH with A24V
VL: B1 VL with R50Y
